{"source": "patent US20140178935A1", "about": "(AVEO PHARMACEUTICALS, published 2014)", "binders": {"B1": {"name": "HE2B8-4 (LRMR2B8HC + IgG1 constant region G1m(3) allotype allele 1, plus LRMR2B8LC + Kappa constant region Km(3) allotype allele 1) (antibody, V domains shown)", "VH": "QVQLVQPGAEVKKPGTSVKLSCKASGYTFTTYWMHWVRQAPGQGLEWIGEINPTNGHTNYNQKFQGRATLTVDKSTSTAYMELSSLRSEDTAVYYCARNYVGSIFDYWGQGTLLTVSS", "VL": "DIVMTQSPDSLAMSLGERVTLNCKASENVVSYVSWYQQKPGQSPKLLIYGASNRESGVPDRFSGSGSATDFTLTISSVQAEDVADYHCGQSYNYPYTFGQGTKLEIKR", "notes": "Human Engineered 2B8 variant, human IgG1 kappa, made in HEK293E cells"}, "B2": {"name": "anti-hHGF monoclonal antibody 2B8 (antibody, mouse IgG1, kappa)", "heavy": "QVQLQQPGAELVKPGTSVKLSCKASGYTFTTYWMHWVNQRPGQGLEWIGEINPTNGHTNYNEKFKSKATLTVDKSSSTAYMQLSSLTSEDSAVYYCARNYVGSIFDYWGQGTTLTVSSAKTTPPSVYPLAPGSAAQTNSMVTLGCLVKGYFPEPVTVTWNSGSLSSGVHTFPAVLQSDLYTLSSSVTVPSSTWPSETVTCNVAHPASSTKVDKKIVPRDCGCKPCICTVPEVSSVFIFPPKPKDVLTITLTPKVTCVVVDISKDDPEVQFSWFVDDVEVHTAQTQPREEQFNSTFRSVSELPIMHQDWLNGKEFKCRVNSAAFPAPIEKTISKTKGRPKAPQVYTIPPPKEQMAKDKVSLTCMITDFFPEDITVEWQWNGQPAENYKNTQPIMDTDGSYFVYSKLNVQKSNWEAGNTFTCSVLHEGLHNHHTEKSLSHSPGK", "light": "NIVMTQSPKSMSMSVGERVTLSCKASENVVSYVSWYQQKPAQSPKLLIYGASNRNTGVPDRFTGSGSATDFTLTISSVRAEDLADYHCGQSYNYPYTFGGGTRLEIKRADAAPTVSIFPPSSEQLTSGGASVVCFLNNFYPKDINVKWKIDGSERQNGVLNSWTDQDSKDSTYSMSSTLTLTKDEYERHNSYTCEATHKTSTSPIVKSFNRNEC", "notes": "Murine IgG1 kappa from hybridoma; also called murine 2B8; mouse 2B8"}}, "key": {"[1]": {"target": "T1, recombinant human HGF (R&D Systems, Catalog No. 294-HGN-025) (human, UniProt P14210 32-728)", "T1 construct": "Mature HGF is a disulfide-linked heterodimer of alpha and beta chain cut from one precursor; also called rhHGF (R&D Systems); rhHGF", "T1 sequence (P14210 32-728 limits assumed)": "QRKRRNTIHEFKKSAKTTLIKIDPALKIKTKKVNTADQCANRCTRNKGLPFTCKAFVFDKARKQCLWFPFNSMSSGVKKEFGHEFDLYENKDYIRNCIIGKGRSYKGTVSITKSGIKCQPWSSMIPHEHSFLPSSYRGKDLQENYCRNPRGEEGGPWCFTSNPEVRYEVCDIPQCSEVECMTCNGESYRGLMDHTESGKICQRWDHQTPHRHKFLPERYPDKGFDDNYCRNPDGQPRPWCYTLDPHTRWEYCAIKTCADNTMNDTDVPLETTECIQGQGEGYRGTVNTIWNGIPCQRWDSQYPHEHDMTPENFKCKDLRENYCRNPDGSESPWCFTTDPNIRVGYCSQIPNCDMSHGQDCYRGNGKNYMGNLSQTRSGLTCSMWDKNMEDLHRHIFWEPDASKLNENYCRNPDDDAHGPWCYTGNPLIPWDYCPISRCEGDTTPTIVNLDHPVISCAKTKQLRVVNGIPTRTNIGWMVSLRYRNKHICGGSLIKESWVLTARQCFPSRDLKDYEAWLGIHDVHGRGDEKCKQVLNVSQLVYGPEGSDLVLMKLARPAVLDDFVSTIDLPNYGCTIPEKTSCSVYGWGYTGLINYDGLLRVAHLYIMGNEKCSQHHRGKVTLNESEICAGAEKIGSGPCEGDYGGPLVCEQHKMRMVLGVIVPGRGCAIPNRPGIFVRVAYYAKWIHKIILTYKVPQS", "assay": "SPR, captured antibody, HGF injected, 37 C", "method": "Mouse anti-human immunoglobulins (Jackson Labs, Catalog No. 209-005) or rabbit anti-mouse immunoglobulins (BIAcore, Catalog No. BR-1005-14) were immobilized on carboxymethylated dextran CM4 sensor chips (BIAcore, Catalog No. BR-1006-68) by amine coupling (BIAcore, Catalog No. BR-1000-50) using a standard coupling protocol according to manufacturer's instructions. […] The analyses were performed at 25° C. and 37° C. using PBS (GIBCO, Catalog No. 14040-133) containing 0.05% surfactant P20 (BIAcore, Catalog No. BR-1000-54), and 2 mg/mL BSA (EMD, Catalog No. 2930) as running buffer.\nThe antibodies were captured in an individual flow cell at a flow rate of […]. Injection time was variable for each antibody to yield approximately 20 RU of antibody captured for each cycle. […] The dissociation phase was monitored for 15 or 90 minutes, depending on concentration. The surface of mouse anti-human immunoglobulins sensor chips was then regenerated with 10 mM Glycine-HCl, pH 2.2 (BIAcore, Catalog No. BR-1003-54) injected for 3 minutes at a flow rate of 60 μL/min before another cycle was initiated. The surface of rabbit anti-mouse immunoglobulins sensor chips was regenerated with 10 mM Glycine-HCl, pH 1.7 (BIAcore, Catalog No. BR-1003-54) injected for 3 minutes at a flow rate of 60 μL/min before another cycle was initiated.\nKinetic parameters were determined using the kinetic function of the BIAevaluation software with reference subtraction."}, "[2]": {"target": "T1, recombinant human HGF (R&D Systems, …)", "assay": "competition ELISA (DELFIA): antibody inhibits biotinylated c-Met binding to plate-coated HGF", "method": "The plates then were blocked with 200 μL of 5% non-fat dry milk in PBS for 1 hour at room temperature. […] 100 μL of sample per well was transferred to the assay plate and incubated for 2 hours at room temperature. The resulting plates were washed three times with PBS-0.1% Tween 20, and incubated for 1 hour at room temperature with Eu-labeled Streptavidin (Wallac, Catalog No. 1244-360) diluted 1:1000 in DELFIA assay buffer (Wallac, Catalog No. 4002-0010). The resulting plates were washed 3 times with DELFIA wash solution (Wallac, Catalog No. 4010-0010) and incubated with 100 μL/well DELFIA enhancement solution (Wallac #4001-0010) for 15 minutes at room temperature with agitation. The plates were read on Victor³V instrument (Perkin Elmer) using the Europium method. The IC₅₀ values were calculated using Prism."}, "[3]": {"target": "T1, recombinant human HGF (R&D Systems, …)", "assay": "cell-based or functional assay"}, "[4]": {"target": "T1, recombinant human HGF (R&D Systems, …)", "assay": "SPR, captured antibody, HGF injected, 25 C", "method": "Mouse anti-human immunoglobulins (Jackson Labs, Catalog No. 209-005) were immobilized on carboxymethylated dextran CM4 sensor chips (BIAcore, Catalog No. BR-1006-68) by amine coupling (BIAcore, Catalog No. BR-1000-50) using a standard coupling protocol according to manufacturer's instructions. The analyses were performed at 25° C. using PBS (GIBCO, Catalog No. 14040-133) containing 0.05% surfactant P20 (BIAcore, Catalog No. BR-1000-54), and 2 mg/mL BSA (EMD, Catalog No. 2930).\nThe antibodies were captured in an individual flow cell at a flow rate of 10 μL/min. Injection time was variable for each antibody to yield approximately 20 RU of antibody captured for each cycle. […] The dissociation phase was monitored for 15 or 90 minutes, depending on concentration. The surface then was regenerated with 10 mM Glycine-HCl, pH 2.2 (BIAcore, Catalog No. BR-1003-54) injected for 3 minutes at a flow rate of 60 μL/min before another cycle was initiated.\nKinetic parameters were determined using the kinetic function of the BIAevalutation™ software with reference subtraction."}, "[5]": {"target": "T1, recombinant human HGF (R&D Systems, …)", "assay": "cell-based or functional assay", "remark": "listed apart in the source"}, "[6]": {"target": "T1, recombinant human HGF (R&D Systems, …)", "assay": "competition ELISA (DELFIA): antibody inhibits c-Met binding to plate-coated HGF", "method": "The plates then were blocked with 200 μL of 5% non-fat dry milk in PBS for 1 hour at room temperature. […] 100 μL of sample per well was transferred to the assay plate and incubated overnight at 4° C.\nThe resulting plates then were washed three times with PBS-0.1% Tween 20, and incubated for 1 hour at room temperature with Eu-labeled Streptavidin (Wallac, Catalog No. 1244-360) diluted 1:1000 in DELFIA assay buffer (Wallac, Catalog No. 4002-0010). The resulting plates were washed 3 times with DELFIA wash solution (Wallac, Catalog No. 4010-0010) and incubated with 100 μL/well DELFIA enhancement solution (Wallac #4001-0010) for 15 minutes at room temperature with agitation.\nThe plates were read on Victor³V instrument (Perkin Elmer) using the Europium method."}}, "note": "Where two headings read alike, the source gives them in different places.", "data": [{"binder": "B1", "values": [{"measurement": "Kd", "setting": "[1]", "result": 0.0033, "unit": "nM"}, {"measurement": "koff", "setting": "[1]", "result": "1e-05", "unit": "s⁻¹"}, {"measurement": "kon", "setting": "[1]", "result": "3.1e+06", "unit": "M⁻¹ s⁻¹"}, {"measurement": "IC50", "setting": "[2]", "result": 6.5, "unit": "nM"}, {"measurement": "IC50, neutralization of HGF stimulated BrdU incorporation in 4 MBr-5 cells", "setting": "[3]", "result": 0.58, "unit": "nM"}, {"measurement": "Kd", "setting": "[4]", "result": 0.0065, "unit": "nM"}, {"measurement": "koff", "setting": "[4]", "result": "1.1e-05", "unit": "s⁻¹"}, {"measurement": "kon", "setting": "[4]", "result": "1.7e+06", "unit": "M⁻¹ s⁻¹"}]}, {"binder": "B2", "values": [{"measurement": "Kd", "setting": "[1]", "result": 0.0045, "unit": "nM"}, {"measurement": "koff", "setting": "[1]", "result": "1.3e-05", "unit": "s⁻¹"}, {"measurement": "kon", "setting": "[1]", "result": "2.8e+06", "unit": "M⁻¹ s⁻¹"}, {"measurement": "IC50, neutralization of HGF stimulated BrdU incorporation in 4 MBr-5 cells", "setting": "[5]", "result": 1.41, "unit": "nM"}, {"measurement": "IC50", "setting": "[6]", "result": 5.57, "unit": "nM"}, {"measurement": "IC50", "setting": "[2]", "result": 9.2, "unit": "nM"}, {"measurement": "IC50, neutralization of HGF stimulated BrdU incorporation in 4 MBr-5 cells", "setting": "[3]", "result": 0.86, "unit": "nM"}, {"measurement": "Kd", "setting": "[4]", "result": 0.0073, "unit": "nM"}, {"measurement": "koff", "setting": "[4]", "result": "1e-05", "unit": "s⁻¹"}, {"measurement": "kon", "setting": "[4]", "result": "1.4e+06", "unit": "M⁻¹ s⁻¹"}]}]}
